From US20120282643A1
Each block holds one substance with its values, some of them ahead of it.

Biological target: sulfite reductase tagged with a C-terminal GFP S11 (SEQ ID NO: 16)
Experiment: cell-based or functional assay

Substance: Split-YFP S1-10 (T203Y, D210V) (from UniProt P42212 1-214)
Green Fluorescence (488/510) (clone E10): 21.4
Ratio Yellow/Green Fluorescence (clone E10): 7.33
Yellow Fluorescence (510/532) (clone E10): 157

Substance: Split-YFP S1-10 (T203Y, Q204E) (from UniProt P42212 1-214)
Green Fluorescence (488/510) (clone C6): 5.1
Ratio Yellow/Green Fluorescence (clone C6): 20
Yellow Fluorescence (510/532) (clone C6): 102

Substance: Split-YFP S1-10 (T203Y, Q204H) (from UniProt P42212 1-214)
Green Fluorescence (488/510) (clone F8): 20.2
Ratio Yellow/Green Fluorescence (clone F8): 8.16
Yellow Fluorescence (510/532) (clone F8): 165

Substance: Split-YFP S1-10 (Y200F, T203Y) (from UniProt P42212 1-214)
Green Fluorescence (488/510) (clone B9): 14.7
Ratio Yellow/Green Fluorescence (clone B9): 10.9
Yellow Fluorescence (510/532) (clone B9): 160

Second part, the substance after the results:

Green Fluorescence (488/510) (clone A6): 7.74
Green Fluorescence (488/510) (clone A8): 8.54
Green Fluorescence (488/510) (clone B3): 13.9
Green Fluorescence (488/510) (clone B4): 16
Green Fluorescence (488/510) (clone B6): 8.08
Green Fluorescence (488/510) (clone B10): 16.1
Green Fluorescence (488/510) (clone C9): 17.5
Green Fluorescence (488/510) (clone D1): 16.4
Green Fluorescence (488/510) (clone D2): 18.5
Green Fluorescence (488/510) (clone D5): 17.8
Green Fluorescence (488/510) (clone D7): 17.4
Green Fluorescence (488/510) (clone D9): 21
Green Fluorescence (488/510) (clone D10): 18.2
Green Fluorescence (488/510) (clone D11): 17.1
Green Fluorescence (488/510) (clone E1): 12.3
Green Fluorescence (488/510) (clone E3): 17.9
Green Fluorescence (488/510) (clone E4): 17.4
Green Fluorescence (488/510) (clone E6): 15.4
Green Fluorescence (488/510) (clone E8): 22.9
Green Fluorescence (488/510) (clone E9): 23.9
Green Fluorescence (488/510) (clone F1): 15.8
Green Fluorescence (488/510) (clone F6): 11.5
Green Fluorescence (488/510) (clone F7): 17.7
Green Fluorescence (488/510) (clone F9): 21.4
Green Fluorescence (488/510) (clone F10): 8.11
Green Fluorescence (488/510) (clone F11): 19
Green Fluorescence (488/510) (clone G9): 18.6
Green Fluorescence (488/510) (clone G10): 17
Green Fluorescence (488/510) (clone H4): 9.39
Green Fluorescence (488/510) (clone H5): 8.77
Green Fluorescence (488/510) (clone H9): 12.4
Green Fluorescence (488/510) (clone H10): 13.1
Ratio Yellow/Green Fluorescence (clone A6): 18.9
Ratio Yellow/Green Fluorescence (clone A8): 17.5
Ratio Yellow/Green Fluorescence (clone B3): 10.5
Ratio Yellow/Green Fluorescence (clone B4): 9.71
Ratio Yellow/Green Fluorescence (clone B6): 13.7
Ratio Yellow/Green Fluorescence (clone B10): 10.2
Ratio Yellow/Green Fluorescence (clone C9): 9.2
Ratio Yellow/Green Fluorescence (clone D1): 9.41
Ratio Yellow/Green Fluorescence (clone D2): 8.3
Ratio Yellow/Green Fluorescence (clone D5): 8.66
Ratio Yellow/Green Fluorescence (clone D7): 8.97
Ratio Yellow/Green Fluorescence (clone D9): 7.45
Ratio Yellow/Green Fluorescence (clone D10): 7.74
Ratio Yellow/Green Fluorescence (clone D11): 8.31
Ratio Yellow/Green Fluorescence (clone E1): 11.3
Ratio Yellow/Green Fluorescence (clone E3): 8.45
Ratio Yellow/Green Fluorescence (clone E4): 8.79
Ratio Yellow/Green Fluorescence (clone E6): 10.1
Ratio Yellow/Green Fluorescence (clone E8): 7.21
Ratio Yellow/Green Fluorescence (clone E9): 6.93
Ratio Yellow/Green Fluorescence (clone F1): 10.1
Ratio Yellow/Green Fluorescence (clone F6): 12.6
Ratio Yellow/Green Fluorescence (clone F7): 9.1
Ratio Yellow/Green Fluorescence (clone F9): 7.71
Ratio Yellow/Green Fluorescence (clone F10): 14.3
Ratio Yellow/Green Fluorescence (clone F11): 8.74
Ratio Yellow/Green Fluorescence (clone G9): 9.14
Ratio Yellow/Green Fluorescence (clone G10): 9.91
Ratio Yellow/Green Fluorescence (clone H4): 16.6
Ratio Yellow/Green Fluorescence (clone H5): 18.4
Ratio Yellow/Green Fluorescence (clone H9): 13.5
Ratio Yellow/Green Fluorescence (clone H10): 13.3
Yellow Fluorescence (510/532) (clone A6): 146
Yellow Fluorescence (510/532) (clone A8): 150
Yellow Fluorescence (510/532) (clone B3): 146
Yellow Fluorescence (510/532) (clone B4): 155
Yellow Fluorescence (510/532) (clone B6): 111
Yellow Fluorescence (510/532) (clone B10): 165
Yellow Fluorescence (510/532) (clone C9): 161
Yellow Fluorescence (510/532) (clone D1): 154
Yellow Fluorescence (510/532) (clone D2): 154
Yellow Fluorescence (510/532) (clone D5): 154
Yellow Fluorescence (510/532) (clone D7): 156
Yellow Fluorescence (510/532) (clone D9): 156
Yellow Fluorescence (510/532) (clone D10): 141
Yellow Fluorescence (510/532) (clone D11): 143
Yellow Fluorescence (510/532) (clone E1): 139
Yellow Fluorescence (510/532) (clone E3): 151
Yellow Fluorescence (510/532) (clone E4): 153
Yellow Fluorescence (510/532) (clone E6): 155
Yellow Fluorescence (510/532) (clone E8): 165
Yellow Fluorescence (510/532) (clone E9): 165
Yellow Fluorescence (510/532) (clone F1): 159
Yellow Fluorescence (510/532) (clone F6): 144
Yellow Fluorescence (510/532) (clone F7): 161
Yellow Fluorescence (510/532) (clone F9): 165
Yellow Fluorescence (510/532) (clone F10): 116
Yellow Fluorescence (510/532) (clone F11): 166
Yellow Fluorescence (510/532) (clone G9): 170
Yellow Fluorescence (510/532) (clone G10): 168
Yellow Fluorescence (510/532) (clone H4): 156
Yellow Fluorescence (510/532) (clone H5): 161
Yellow Fluorescence (510/532) (clone H9): 168
Yellow Fluorescence (510/532) (clone H10): 175
Substance: Split-YFP S1-10 (T203Y) (from UniProt P42212 1-214)

Green Fluorescence (488/510) (clone A3): 1.8
Ratio Yellow/Green Fluorescence (clone A3): 42
Yellow Fluorescence (510/532) (clone A3): 75.7
Substance: Split-YFP S1-10 (T203Y, T205A) (from UniProt P42212 1-214)
